The chains are these.
B1: LINE1-full (parent)
chain: UACGUAGGUGGUUUUCCCCUGAUAGUGCUAAGGGGGCCUGGAAGUUUGGACUGGGCAGAGCUCAACACAGCGUGGCAAAGUGGCUGUGGCUAGACUGCCUCUCUGGAUUCCUCGUCACUCAGCAGGGCAUCUCUGAGAGAAAUGCC

The data set covers variants of B1. In words: self-cleavage, relative activity (ratio to wild type); higher = more cleavage; in vitro, sequencing; the parent is a self-cleaving ribozyme.
On to U9A A78U, for which the self-cleavage stood at 1.65.
Consider U9A A78G, for which the self-cleavage was 1.13.
Turning to G8A C37U, the self-cleavage stood at 1.31.
With G8A U119A, the self-cleavage came to 2.47.
With G8A U119C the figure was 1.1; with U9A G74A, 1.09.
As to U9G C116G, the self-cleavage was 1.18.
With U9G A67G, the self-cleavage amounted to 0.37.
The value for U9A U62A was 0.12.
Turning to U9A G70C, the self-cleavage turned out to be 0.3.
For the variant U9A U104C, the self-cleavage turned out to be 1.17.
With U9A U13C the figure was 0.81; with U9A U13A, 1.12.
With G8A U104A, the self-cleavage is 1.25.
For the variant G8A U104C, the self-cleavage was determined as 1.29.
For G7A U100C, the self-cleavage is 2.45.
As to U9C U62A, the self-cleavage was 0.14.
Turning to U9C U46C, the self-cleavage is 1.08.
Turning to U9C U46A, the self-cleavage came out at 1.18.
In the case of U9A U132C, the self-cleavage stood at 1.04.
The value for U9C A142G was 1.24; that for U9C A142C was 0.83.
The value for U9C A142U was 1.38; that for G8C A121C was 1.75; that for G8A U62C was 0.05.
For G8A U62G, the self-cleavage came out at 0.
As for U9A A140C, the self-cleavage came out at 1.06.
With U9A A140G the figure was 1.11; with U9A C90A, 0.04; with U9A C90U, 0.
On to G7A U130C, for which the self-cleavage stood at 0.94.
For U9G A22G, the self-cleavage was determined as 0.93.
As to G8A A59G, the self-cleavage worked out at 0.16.
On to G8C U14G, for which the self-cleavage turned out to be 1.39.
U9A G35A: the self-cleavage was 1.09.
With U9A G35C, the self-cleavage is 1.87.
As for U9A U108C, the self-cleavage is 0.9.
For the variant G8C U46C, the self-cleavage is 1.13.
The value for G7U U132C was 1.23.
As to U9C C103U, the self-cleavage came out at 1.4.
On to G8C A50G, for which the self-cleavage was determined as 1.14.
With U9C A138G, the self-cleavage is 1.21.
As to G8A A142G, the self-cleavage turned out to be 1.45.
For the variant G7U A136G, the self-cleavage worked out at 1.86.
U9A U73G: the self-cleavage is 1.29.
As for U9A U143C, the self-cleavage stood at 0.94.
In the case of U9A U143A, the self-cleavage was 1.34.
As for U9A U143G, the self-cleavage was found to be 1.98.
U9C C145A: the self-cleavage came to 1.3.
For the variant U9G U62C, the self-cleavage is 0.16.
The value for U9A A92U was 0.73; that for G7A U115C was 1.21; that for U9A G53A was 1.53.
Consider G8A G97A, for which the self-cleavage was found to be 0.41.
Consider U9C A124U, for which the self-cleavage stood at 1.26.
Consider U9A U109C, for which the self-cleavage was 1.34.
Regarding U9C U143C, the self-cleavage was found to be 1.31.
On to U9C A141G, for which the self-cleavage is 1.36.
The value for U9C A141U was 1.53; that for G7C U143C was 1.93.
With U9C C98G the figure was 0.22; with U9C C16A, 0.59; with U9C U45C, 1.27.
As for G7U G40A, the self-cleavage turned out to be 1.47.
As for G7U U73C, the self-cleavage is 1.55.
With U9C A65U the figure was 0.32.
On to U9G U102A, for which the self-cleavage came to 1.44.
As for U9C A94C, the self-cleavage was 0.11.
As for U9C A94G, the self-cleavage turned out to be 0.66.
As for U9C A94U, the self-cleavage is 0.21.
With G7U A57G, the self-cleavage came out at 0.12.
With G8A A107G the figure was 1.58; with U9A G27A, 0.81.
In the case of U9C C113G, the self-cleavage was determined as 1.75.
G7C U52A: the self-cleavage came to 1.32.
As to U9A A57U, the self-cleavage was found to be 0.19.
With U9A A57G, the self-cleavage turned out to be 0.98.
In the case of G7A U109C, the self-cleavage turned out to be 1.19.
Regarding G8C A129G, the self-cleavage was 1.31.
As for G8U C56U, the self-cleavage was determined as 0.28.
Consider U9C U14A, for which the self-cleavage worked out at 1.17.
With U9C U14G the figure was 2.09.
As to U9C G89U, the self-cleavage was 0.08.
For U9C G89C, the self-cleavage came to 0.05.
As for U9A U115C, the self-cleavage came to 1.55.
Consider U9C U115C, for which the self-cleavage was determined as 1.29.
Take U9C U115A: the self-cleavage came to 1.55.
For the variant U9C A117U, the self-cleavage worked out at 1.62.
As to U9C A117G, the self-cleavage was 1.53.
With U9C A69G the figure was 0.83.
On to G8A U20C, for which the self-cleavage was 1.59.
Regarding U9C U96A, the self-cleavage was 0.15.
In the case of U9C U96C, the self-cleavage turned out to be 0.14.
G7C G40A: the self-cleavage was 1.27.
For the variant G7A U47C, the self-cleavage was determined as 1.21.
Consider U9C C61U, for which the self-cleavage stood at 0.08.
Turning to U9A C37U, the self-cleavage turned out to be 0.63.
The value for U9C A121U was 1.32; that for U9A U14A was 1.03; that for U9A C128U was 0.9.
In the case of U9A C99A, the self-cleavage is 0.67.
Consider G7U C16U, for which the self-cleavage amounted to 1.5.
Regarding G7U A107G, the self-cleavage was found to be 1.36.
Consider G7A U102C, for which the self-cleavage was 1.77.
For G8C A140G, the self-cleavage is 2.03.
Consider G8A A67C, for which the self-cleavage was found to be 0.
G7U U45C: the self-cleavage was determined as 0.86.
In the case of G7C G48A, the self-cleavage stood at 0.92.
For the variant U9G A79G, the self-cleavage came out at 0.63.
The value for U9A U12C was 0.86; that for U9A U12G was 0.67.
The value for U9A G105A was 1.35; that for U9A G36U was 0.71.
As for U9C U23C, the self-cleavage stood at 1.68.
In the case of U9A A129U, the self-cleavage amounted to 1.43.
On to U9C C38U, for which the self-cleavage worked out at 1.29.
As to G8U U13C, the self-cleavage turned out to be 2.33.
On to G7U U112A, for which the self-cleavage was determined as 1.06.
Consider G7U U112C, for which the self-cleavage came out at 1.15.
In the case of U9C A42G, the self-cleavage came out at 1.32.
On to G7U A30G, for which the self-cleavage worked out at 0.78.
With U9C U81G, the self-cleavage is 1.31.
The value for U9C G48C was 1.09.
On to U9G G44A, for which the self-cleavage was found to be 1.53.
For U9C G137A, the self-cleavage is 1.15.
In the case of U9A U46C, the self-cleavage is 0.98.
For the variant U9A A94G, the self-cleavage came to 0.27.
With U9C G27A, the self-cleavage stood at 1.16.
On to U9C U52A, for which the self-cleavage worked out at 2.31.
Consider U9C U52C, for which the self-cleavage was 1.36.
On to U9A G32A, for which the self-cleavage turned out to be 1.73.
As to U9C G106A, the self-cleavage was 1.71.
Regarding U9A G55C, the self-cleavage worked out at 0.09.
On to G8A A65G, for which the self-cleavage was 0.
On to G8A A140G, for which the self-cleavage was 1.55.
Regarding U9C U102A, the self-cleavage amounted to 1.11.
Regarding U9C U102C, the self-cleavage was 1.3.
For G8A U134C, the self-cleavage worked out at 1.55.
With U9A A141G the figure was 1.36.
In the case of G8A G86A, the self-cleavage was 0.09.
Consider U9G A42G, for which the self-cleavage was determined as 1.4.
The value for U9G A77U was 1.44.
As for G7C U81A, the self-cleavage amounted to 2.25.
U9A U85C: the self-cleavage is 0.54.
U9A U85A: the self-cleavage was 0.09.
Turning to U9C C95G, the self-cleavage amounted to 0.12.
On to U9C A59U, for which the self-cleavage stood at 0.72.
With G8A U81C the figure was 1.25; with G8A A77U, 1.23.
U9A U87G: the self-cleavage stood at 0.23.
With G7U U115C the figure was 0.79.
For U9A U81C, the self-cleavage was determined as 1.1.
With U9C C146U the figure was 1.1; with G7U U85A, 0.13.
Take G8U U130C: the self-cleavage came out at 1.66.
U9G U73C: the self-cleavage stood at 1.24.
Consider U9A A117G, for which the self-cleavage is 0.96.
Consider U9A A117U, for which the self-cleavage amounted to 1.11.
Turning to U9A A136G, the self-cleavage amounted to 1.29.
On to U9A U20A, for which the self-cleavage stood at 1.41.
For the variant U9A C71A, the self-cleavage stood at 0.6.
With U9A C18A the figure was 1.09; with U9A C18G, 1.1; with G7C A92G, 0.
On to U9C C128U, for which the self-cleavage came to 1.52.
Consider U9G A31C, for which the self-cleavage was 1.72.
On to U9C C66U, for which the self-cleavage came out at 0.08.

These data come from the RNAGym collection of RNA variant scans (doi:10.7554/elife.90254).
